Test results published in article PMC6648896 (Nucleic Acids Research, 2019).

Target: E. coli RNAP core enzyme (E. coli, UniProt P0A7Z4;P0A8V2;P0A8T7;P0A800)
Assay: fluorescence polarisation

E. coli RNAP core enzyme, sequence (P0A7Z4 whole entry, chain 1 of 4): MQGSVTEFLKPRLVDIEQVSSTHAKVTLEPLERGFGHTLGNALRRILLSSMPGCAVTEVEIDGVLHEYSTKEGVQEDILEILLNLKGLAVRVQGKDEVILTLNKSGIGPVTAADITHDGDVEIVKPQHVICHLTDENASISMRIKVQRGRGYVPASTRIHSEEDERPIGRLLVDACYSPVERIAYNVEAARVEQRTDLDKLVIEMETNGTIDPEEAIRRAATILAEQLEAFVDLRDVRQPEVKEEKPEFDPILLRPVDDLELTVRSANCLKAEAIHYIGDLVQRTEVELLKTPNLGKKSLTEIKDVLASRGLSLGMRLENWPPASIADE
E. coli RNAP core enzyme, sequence (P0A8V2 whole entry, chain 2 of 4): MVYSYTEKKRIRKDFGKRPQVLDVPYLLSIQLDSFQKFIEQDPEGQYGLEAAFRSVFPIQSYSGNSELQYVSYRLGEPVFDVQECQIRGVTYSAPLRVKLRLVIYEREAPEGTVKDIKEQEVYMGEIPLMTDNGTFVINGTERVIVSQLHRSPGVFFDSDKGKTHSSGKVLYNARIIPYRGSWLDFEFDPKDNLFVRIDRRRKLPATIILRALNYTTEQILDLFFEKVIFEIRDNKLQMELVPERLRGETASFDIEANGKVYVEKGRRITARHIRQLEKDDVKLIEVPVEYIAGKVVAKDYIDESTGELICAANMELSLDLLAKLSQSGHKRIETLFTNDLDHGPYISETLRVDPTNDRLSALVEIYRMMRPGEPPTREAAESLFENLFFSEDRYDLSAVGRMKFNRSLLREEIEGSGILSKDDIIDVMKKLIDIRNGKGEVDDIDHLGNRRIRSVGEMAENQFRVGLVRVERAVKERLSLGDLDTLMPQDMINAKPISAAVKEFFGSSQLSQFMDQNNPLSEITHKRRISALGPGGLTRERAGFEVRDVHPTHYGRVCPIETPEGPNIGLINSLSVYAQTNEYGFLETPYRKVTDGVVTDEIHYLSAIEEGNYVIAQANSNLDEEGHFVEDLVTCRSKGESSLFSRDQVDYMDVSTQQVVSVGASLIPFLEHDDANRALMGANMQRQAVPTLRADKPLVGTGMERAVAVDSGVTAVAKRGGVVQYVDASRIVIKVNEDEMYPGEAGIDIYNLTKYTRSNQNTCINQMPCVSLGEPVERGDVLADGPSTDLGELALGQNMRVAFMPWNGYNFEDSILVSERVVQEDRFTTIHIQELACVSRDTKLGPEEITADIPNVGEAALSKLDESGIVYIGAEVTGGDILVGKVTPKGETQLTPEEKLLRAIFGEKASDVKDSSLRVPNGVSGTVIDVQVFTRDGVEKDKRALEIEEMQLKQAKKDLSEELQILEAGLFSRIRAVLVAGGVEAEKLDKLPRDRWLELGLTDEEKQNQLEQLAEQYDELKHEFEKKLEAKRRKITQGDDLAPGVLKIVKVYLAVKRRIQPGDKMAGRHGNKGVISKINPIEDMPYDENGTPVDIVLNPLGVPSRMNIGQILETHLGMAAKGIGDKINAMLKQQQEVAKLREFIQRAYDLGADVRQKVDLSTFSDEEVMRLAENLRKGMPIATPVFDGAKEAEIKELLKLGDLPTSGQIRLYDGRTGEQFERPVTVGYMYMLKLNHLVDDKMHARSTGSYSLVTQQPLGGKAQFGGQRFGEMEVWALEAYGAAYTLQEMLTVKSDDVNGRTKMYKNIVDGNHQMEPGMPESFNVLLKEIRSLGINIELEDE
E. coli RNAP core enzyme, sequence (P0A8T7 whole entry, chain 3 of 4): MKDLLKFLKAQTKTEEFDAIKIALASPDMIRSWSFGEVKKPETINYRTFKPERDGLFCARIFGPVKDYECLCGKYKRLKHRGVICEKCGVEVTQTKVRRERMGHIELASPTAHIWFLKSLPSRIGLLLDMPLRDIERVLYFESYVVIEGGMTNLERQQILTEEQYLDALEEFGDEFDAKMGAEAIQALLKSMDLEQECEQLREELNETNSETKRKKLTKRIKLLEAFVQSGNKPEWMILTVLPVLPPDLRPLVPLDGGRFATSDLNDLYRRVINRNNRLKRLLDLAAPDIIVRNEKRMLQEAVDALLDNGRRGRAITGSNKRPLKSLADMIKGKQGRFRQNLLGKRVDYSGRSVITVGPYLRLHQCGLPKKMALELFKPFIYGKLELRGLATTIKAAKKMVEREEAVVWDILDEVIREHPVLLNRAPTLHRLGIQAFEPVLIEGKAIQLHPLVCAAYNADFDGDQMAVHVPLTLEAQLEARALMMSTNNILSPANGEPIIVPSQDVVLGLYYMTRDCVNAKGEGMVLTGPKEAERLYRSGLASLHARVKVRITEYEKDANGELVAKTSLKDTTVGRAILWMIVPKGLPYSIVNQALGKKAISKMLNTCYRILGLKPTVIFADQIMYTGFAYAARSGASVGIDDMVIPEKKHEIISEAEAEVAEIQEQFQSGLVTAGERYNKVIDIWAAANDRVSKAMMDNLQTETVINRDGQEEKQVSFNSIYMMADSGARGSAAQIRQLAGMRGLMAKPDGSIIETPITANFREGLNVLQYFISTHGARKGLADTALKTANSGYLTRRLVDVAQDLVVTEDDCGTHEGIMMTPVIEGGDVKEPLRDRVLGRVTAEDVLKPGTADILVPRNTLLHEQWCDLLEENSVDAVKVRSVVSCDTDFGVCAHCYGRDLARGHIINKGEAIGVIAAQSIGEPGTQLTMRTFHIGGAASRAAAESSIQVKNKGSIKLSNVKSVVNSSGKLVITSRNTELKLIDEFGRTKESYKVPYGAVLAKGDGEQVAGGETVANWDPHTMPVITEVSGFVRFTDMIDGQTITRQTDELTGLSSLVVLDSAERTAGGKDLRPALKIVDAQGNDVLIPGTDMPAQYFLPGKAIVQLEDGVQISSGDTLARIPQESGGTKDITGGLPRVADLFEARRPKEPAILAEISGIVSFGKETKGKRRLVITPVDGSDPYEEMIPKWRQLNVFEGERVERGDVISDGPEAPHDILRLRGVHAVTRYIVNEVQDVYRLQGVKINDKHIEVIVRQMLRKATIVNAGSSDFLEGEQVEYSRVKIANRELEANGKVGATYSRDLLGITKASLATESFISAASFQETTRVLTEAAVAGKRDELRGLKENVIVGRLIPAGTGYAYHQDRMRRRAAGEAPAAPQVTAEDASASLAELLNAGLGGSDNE
E. coli RNAP core enzyme, sequence (P0A800 whole entry, chain 4 of 4): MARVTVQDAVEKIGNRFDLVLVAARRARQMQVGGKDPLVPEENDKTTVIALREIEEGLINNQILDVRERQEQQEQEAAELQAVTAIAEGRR

B1: fluorescein-labeled E. coli σ^E (natural protein)
chain: MSEQLTDQVLVERVQKGDQKAFNLLVVRYQHKVASLVSRYVPSGDVPDVVQEAFIKAYRALDSFRGDSAFYTWLYRIAVNTAKNYLVAQGRRPPSSDVDAIEAENFESGGALKEISNPENLMLSEELRQIVFRTIESLPEDLRMAITLRELDGLSYEEIAAIMDCPVGTVRSRIFRAREAIDNKVQPLIRR
modifications: fluorescein at residue C165
Q: Which Kd does the source give for B1 here?
A: ~53 nM
